B1: anti-WEEV E2/E3E2 single-domain antibody WC10 (VHH)
VHH: DVQLQASGGGLVEAGGSLRLSCTTSGISVRNSDMGWYRQGPGKQRELIARSSRGGATNYLDSVTGRFTISRDNIKNTVFLQMNSLKPEDTAVYYCNTNPINHWNVWGQGTQVTVSS
notes: also called Bt-WC10
B2: anti-WEEV E2/E3E2 single-domain antibody WB9 (VHH)
VHH: DVQLQASGGGLVQAGGSLRLSCATSGISVSNSDMGWYRQGPGKQRELVARNSRAGTTNYLDSVKGRFTISRDNAKNMVFLQMNSLKLEDTAVYYCNTNPINRWNIWGQGAQVTVSS
notes: also called Bt-WB9
B3: anti-WEEV E2/E3E2 single-domain antibody WD11f (VHH)
VHH: EVQLQASGGGLVQSGGSLRLSCAGSGGTESSYRMAWFRQAPGTERVFVARVSDGGGSILYADSAKGRFTISRDNGKNTIHLQMFSLKPEDTAVYFCAAAFSWMPPSTVAADYEYWGQGTQVTVSS
notes: also called Bt-WD11f
B4: anti-WEEV E2/E3E2 single-domain antibody WH11 (VHH)
VHH: EVQLQASGGGLVQAGGSLRLTCVASGLTFVNYALDWYRQAPGKERELVAGMWSDGVAYYGDFVKGRFTMSRDNAKNMVYLQMNSLEPEDTAVYSCAARSRPTTQYDYWGQGTQVTVSS
notes: also called Bt-WH11
B5: anti-WEEV E2/E3E2 single-domain antibody WF4 (VHH)
VHH: DVQLQASGGGLVQAGGSLRLSCAVSDNTTSLNGMGYYRGPPGKQREFVAYARNNGAPKYADSVMGRFTISVDNSKATVYLQMNNLGPEDTALYYCYAPDRWHTYWAGGTQVTVSS
notes: also called Bt-WF4
B6: anti-WEEV E2/E3E2 single-domain antibody WE10 (VHH)
VHH: DVQLQASGGGLVQAGGSLRLSCVASGLTFVNYAIDWYRQAPGKEREVVAGMWNDGVAYYGDFVKGRFTIARDNAKNTVYLQMNNLKPEDTAVYFCGARSRPNLQYDYWGQGTQVTVSS
notes: also called Bt-WE10

Each binder was assayed against T1, Recombinant WEEV glycoprotein (E2/E3E2) (Western equine encephalitis virus, …, UniProt P13897) (assay: SPR; ProteOn XPR36; […] (20 µg/mL in 10 mM sodium acetate pH 5.0); […]). Details: both partners purified.
T1 construct: source: bought: IBT Bioservices

Point of comparison: B3, Kd 7.2 nM. Against it:
- B1 — within 1.5-fold, 8.5 nM
- B2 — 2.8-fold lower, 2.6 nM
- B4 — 3.1-fold higher, 22 nM
- B5 — 3.3-fold higher, 24 nM
- B6 — 1.7-fold higher, 12 nM

Point of comparison: B5, koff 0.0015 s⁻¹. Against it:
- B1 — 570-fold higher, 0.85 s⁻¹
- B2 — 1.9-fold higher, 0.0029 s⁻¹
- B3 — 350-fold higher, 0.53 s⁻¹
- B4 — 2.2-fold higher, 0.0033 s⁻¹
- B6 — 1.8-fold lower, 0.00083 s⁻¹

Point of comparison: B5, kon 63000 M⁻¹ s⁻¹. Against it:
- B1 — 1600-fold higher, 1e+08 M⁻¹ s⁻¹
- B2 — 17-fold higher, 1.1e+06 M⁻¹ s⁻¹
- B3 — 1200-fold higher, 7.3e+07 M⁻¹ s⁻¹
- B4 — 2.4-fold higher, 150000 M⁻¹ s⁻¹
- B6 — within 1.5-fold, 70000 M⁻¹ s⁻¹

— PMC6698954 (Antibodies, 2018)
